Target: HLA-B*0702 on HLA-B*0702 transfected TAP- T2 cells (human)
Assay: HLA-B*0702 stabilisation on T2-B*0702 cells, FACS with ME.1 mAb; concentration to reach 20% of maximal fluorescence relative to R10V
Conditions: scale: ratio of concentrations, tested peptide / R10V reference

Binder | RA (relative affinity)
APTKAKRRVV (modifications not checked) [A10VV] | 1.14
LPLPPLDRL (modifications not checked) [L9RL] | 6.13
SPHPRISSEV (modifications not checked) [S10EV] | 1.11
QPIQIAIAAL (modifications not checked) [Q10AL] | 6.5
HPRISSEVHI (modifications not checked) [H10HI] | 3.7
IPLGDARLVI (modifications not checked) [I10VI] | 2.33
PPQGSQTHQV (modifications not checked) [P10QV] | 8.97
LPPLDRLTL (modifications not checked) [L9TL] | 3.51
KPPLPSVTKL (modifications not checked) [K10KL] | 3.55
TPKKIKPPL (modifications not checked) [T9PL] | 1.29
RPVVSTQLLL (modifications not checked) [R10LL] | 2.25

Target: HLA-B*0702 on HLA-B*0702 transfected TAP- T2 cells (human)
Assay: not given
Conditions: not given

Binder | RA (relative affinity)
YPLASLRSLF (modifications not checked) [Y10LF] | 3.25

Same assay, conditions: scale: ratio of concentrations, tested peptide / R10V reference

Binder | RA (relative affinity)
AAISPVLRL (modifications not checked) [A9RL] | 15
GPHMPVYPQT (modifications not checked) [G10QT] | 22
SPVLRLRPPV (modifications not checked) [S10PV] | 0.85
MPVYPQTPT (modifications not checked) [M9PT] | 0.94
QPRSDTHVF (modifications not checked) [Q9VF] | 1.56
QPPLYFVHQM (modifications not checked) [Q10QM] | 49
